Results reported in patent JP2014195458A (dated 2014).

How the values were obtained:
[1] = molecular target: T1, recombinant human interleukin-6 (human, UniProt P05231 30-212); assay: Luminex-based assay of IL-6 binding to IL-6 receptor
T1 construct: Recombinant human IL-6 came from several suppliers; also called IL-6; rhIL-6

[2] = molecular target: T1, recombinant human interleukin-6; assay: cell-based or functional assay
[3] = molecular target: T1, recombinant human interleukin-6; assay: solid-phase ELISA on coated rIL-6 and solid-phase RIA with 125I-rIL-6, hybridoma supernatant

T1 sequence (P05231 30-212 limits assumed): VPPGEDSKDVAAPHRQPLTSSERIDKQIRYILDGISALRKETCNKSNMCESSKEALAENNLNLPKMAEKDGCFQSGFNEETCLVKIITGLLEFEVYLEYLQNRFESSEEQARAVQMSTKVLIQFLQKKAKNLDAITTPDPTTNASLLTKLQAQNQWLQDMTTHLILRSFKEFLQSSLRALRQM

B1: mouse anti-IL-6 monoclonal antibody CLB-8 (antibody, V domains shown)
VH: EVQLVESGGKLLKPGGSLKLSCAASGFTFSSFAMSWFRQSPEKRLEWVAEISSGGSYTYYPDTVTGRFTISRDNAKNTLYLEMSSLRSEDTAMYYCARGLWGYYALDYWGQGTSVTVSS
VL: QIVLIQSPAIMSASPGEKVTMTCSASSSVSYMYWYQQKPGSSPRLLIYDTSNLASGVPVRFSGSGSGTSYSLTISRMEAEDAATYYCQQWSGYPYTFGGGTKLEIK
notes: also called CLB-IL6-8; CLB.IL-6/8
For B1, the percent inhibition of IL-6 binding to IL-6 receptor [1] was 100%, the IL−6依存性7TD1細胞増殖バイオアッセイ [2] was 100% and the IL−6誘発性細胞増殖の阻害 (7TD1 cells, ATP luminescence), EC 50 [2] was 7.2 ng/mL. B1: binds [3].
